# Values quoted from earlier work, collected in PMC9464413.
# Target: p97 (Homo sapiens) (UniProt P55072)
# Experiment: SPR
# Chain of UniProt P55072 (P55072 2-806): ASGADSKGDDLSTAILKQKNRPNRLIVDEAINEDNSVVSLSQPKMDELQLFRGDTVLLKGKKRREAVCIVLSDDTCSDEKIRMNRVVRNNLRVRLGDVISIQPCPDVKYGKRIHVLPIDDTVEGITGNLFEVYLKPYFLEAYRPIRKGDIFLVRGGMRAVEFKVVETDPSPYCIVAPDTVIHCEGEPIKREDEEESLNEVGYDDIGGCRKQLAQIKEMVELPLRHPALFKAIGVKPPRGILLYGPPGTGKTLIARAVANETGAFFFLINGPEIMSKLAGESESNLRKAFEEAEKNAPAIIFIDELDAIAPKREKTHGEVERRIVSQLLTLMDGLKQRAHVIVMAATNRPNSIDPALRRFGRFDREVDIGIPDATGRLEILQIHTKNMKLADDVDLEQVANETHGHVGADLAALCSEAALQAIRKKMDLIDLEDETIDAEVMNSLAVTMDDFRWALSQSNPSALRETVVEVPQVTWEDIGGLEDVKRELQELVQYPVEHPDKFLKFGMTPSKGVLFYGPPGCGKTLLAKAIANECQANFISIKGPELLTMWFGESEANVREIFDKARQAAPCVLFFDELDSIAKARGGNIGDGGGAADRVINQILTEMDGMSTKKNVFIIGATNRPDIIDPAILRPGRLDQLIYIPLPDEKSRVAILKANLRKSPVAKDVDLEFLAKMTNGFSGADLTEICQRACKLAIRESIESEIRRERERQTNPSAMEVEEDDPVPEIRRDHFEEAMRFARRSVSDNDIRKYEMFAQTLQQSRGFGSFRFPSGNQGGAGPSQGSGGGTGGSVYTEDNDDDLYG
row,Kd [nM],Substance
1,29,p37 (from UniProt Q14CS0)
2,20,p47 (from UniProt Q9UNZ2)
